# Source: patent US20040253685
# Positions count from the first letter of the chain named.
# Assays:
# [1] = molecular target: T1, wild type bovine endothelial nitric oxide synthase (eNOS) (UniProt P29473)
# T1 sequence: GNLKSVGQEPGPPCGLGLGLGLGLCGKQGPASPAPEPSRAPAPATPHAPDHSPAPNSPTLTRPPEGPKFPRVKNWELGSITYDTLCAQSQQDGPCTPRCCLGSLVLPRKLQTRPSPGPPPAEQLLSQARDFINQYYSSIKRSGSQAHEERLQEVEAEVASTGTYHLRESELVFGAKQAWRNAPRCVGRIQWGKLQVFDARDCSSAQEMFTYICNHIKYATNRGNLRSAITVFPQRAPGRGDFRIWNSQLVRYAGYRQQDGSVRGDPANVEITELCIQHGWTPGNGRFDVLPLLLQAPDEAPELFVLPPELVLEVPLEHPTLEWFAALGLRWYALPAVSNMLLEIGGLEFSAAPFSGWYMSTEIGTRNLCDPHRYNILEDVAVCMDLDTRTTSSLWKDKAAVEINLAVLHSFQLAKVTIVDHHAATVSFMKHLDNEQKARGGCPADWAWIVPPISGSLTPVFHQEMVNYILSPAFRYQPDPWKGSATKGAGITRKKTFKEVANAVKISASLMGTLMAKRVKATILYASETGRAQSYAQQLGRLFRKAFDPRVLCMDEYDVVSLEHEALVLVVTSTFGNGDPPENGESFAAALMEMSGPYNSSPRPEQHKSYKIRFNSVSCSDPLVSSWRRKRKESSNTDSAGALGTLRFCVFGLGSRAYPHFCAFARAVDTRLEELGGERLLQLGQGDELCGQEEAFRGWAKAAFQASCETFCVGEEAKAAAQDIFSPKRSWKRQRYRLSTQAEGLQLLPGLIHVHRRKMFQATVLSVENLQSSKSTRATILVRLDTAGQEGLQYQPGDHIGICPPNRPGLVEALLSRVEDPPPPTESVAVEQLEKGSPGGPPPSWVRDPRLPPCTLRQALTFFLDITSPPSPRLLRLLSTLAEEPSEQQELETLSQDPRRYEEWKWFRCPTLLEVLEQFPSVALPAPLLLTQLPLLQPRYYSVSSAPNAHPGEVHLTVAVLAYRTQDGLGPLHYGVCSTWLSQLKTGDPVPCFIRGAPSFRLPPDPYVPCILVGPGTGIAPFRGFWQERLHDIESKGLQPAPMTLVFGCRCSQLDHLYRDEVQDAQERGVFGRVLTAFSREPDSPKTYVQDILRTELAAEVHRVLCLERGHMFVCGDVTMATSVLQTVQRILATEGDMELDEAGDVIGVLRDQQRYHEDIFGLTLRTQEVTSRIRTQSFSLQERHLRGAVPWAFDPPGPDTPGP
# [2] = test system: T2, wild-type eNOS peptide, amino acids 1174-1194
# T2 sequence: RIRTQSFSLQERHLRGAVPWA
# [3] = test system: mutant eNOS peptide, amino acids 1174-1194 with S1179 changed to an alanine
# eNOS S1179A (bovine) = molecular target: T3, eNOS S1179A (bovine) (UniProt P29473)
# T3 sequence: T1 sequence with S1178A
Substance,"in vitro kinase reaction, incorporation of 32P into the substrate (histone 2B)","in vitro kinase reaction, incorporation of 32P into the substrate [1]",further results
HA-tagged wild-type Akt (protein kinase B),69.3±2.9 ... pmol of ATP/nmol substrate,115.4±3.8 pmol of ATP/nmol substrate,–
recombinant Akt purified from baculovirus infected SF9 cells,–,–,"in vitro kinase reaction, phosphate incorporated into the peptide (Cerenkov counting) [2]: wild-type peptide incorporated 24.6±3.7 nmol phosphate/mg; in vitro kinase reaction, phosphate incorporated into the peptide (Cerenkov counting) [3]: the alanine mutant peptide which incorporated 0.22±0.02 nmol phosphate/mg; in vitro kinase reaction with recombinant Akt, incorporation of 32P into eNOS (eNOS S1179A (bovine)): mutation of S1179 to A markedly reduces Akt-dependent phosphorylation of eNOS compared to the wild-type protein"
HA-tagged kinase inactive Akt (K179M),the inactive Akt did not significantly increase histone or eNOS phosphorylation,the inactive Akt did not significantly increase histone or eNOS phosphorylation,–
constitutively active form of Akt (myr-Akt),–,–,basal production of NO from adenovirus infected BLMVEC [1]: myr-Akt stimulates the basal production of NO from BLMVEC
